# Measurements as given in patent US20110008302A1, “Compositions and methods for immortalizing cells and screening for anti-cancer agents” (priority 2007, published 2011).
# Key:
# MEFs = test: Ndy1 overexpression in serially passaged MEFs, real time PCR of p16Ink4a and p19Arf mRNA; format: cell-based, mouse
# Experimental: FIG. 14 panel B is a set of bar graphs of MEFs overexpressing Ndy1 that were plated at a concentration of 10^5 cells per 6 cm dish and serially passaged. In passage P5, P10, and P15 total mRNA was isolated and analyzed by real time PCR for the relative mRNA levels of p16^Ink4a and p19^Arf. The graphs show the fold decrease of p16^Ink4a and p19^Arf mRNAs in MEFs that overexpress Ndy1 normalized to control empty-vector transduced cells from 3 independent infections.
# RNA was isolated with the RNeasy mini kit (Qiagen #74104). cDNAs of these mRNAs were synthesized with RETROscript (Ambion #AM1710). PCR reactions were carried out in triplicate with iQ SYBRGreen Supermix (Bio-Rad #170-8882) in an Opticon2 continuous fluorescence detector (MJ Research). The following set of primers have been used to amplify the mouse: Ezh2: F-5′-ACTGCTGG CACCGTCTGATG-′3 (SEQ ID NO: 38) and R-5′-TCCTGAGAA ATAATCTCCCCACAG-′3 (SEQ ID NO: 39),
# p16^Ink4a: F-5′-GTGTGCATGA CGTGCGGG-′3 (SEQ ID NO: 42) and R-5′-GCAGTTCGA ATCTGCACCGTAG-′3 (SEQ ID NO: 43), p19^Arf: F-5′GCTCTGGCT TTCGTGAACATG-′3 (SEQ ID NO: 44) and R-5′-TCGAATCTG CACCGTAG′TTGAG'3 (SEQ ID NO: 45),
# Replicative senescence is characterized by the dramatic upregulation of p16^Ink4a (>100-fold, FIG. 16) and p19^Arf (>10-fold). Since, p16^Ink4a inhibits the cyclin D/CDK4-6 complex that mediates the phosphorylation of Rb at Ser807/811, and Ndy1 promotes the phosphorylation of Rb at this site as shown in Examples herein, whether the phosphorylation of Rb in Ndy1-transduced MEFs can be linked to a defect in the induction of the Ink4a/Arf locus was tested. To address this question, the relative levels of p16^Ink4a and p19^Arf mRNA in passaged MEFs stably expressing Ndy1 were determined in examples herein.
# H3K36me2 peptide = test: Fluorescence coupled demethylation assay; format: biochemical; conditions: Ndy1 fragments expressed in E. coli
# Experimental: For assay of in vitro histone demethylation, cells from a confluent 15 cm dish were harvested and the cell pellet was resuspended in 5 packed cell volumes of Buffer A (10 mM HEPES pH 7.9, 1.5 mM MgCl2, 10 mM KCl, 0.5 mM DTT, and 0.2 mM PMSF) and centrifuged at 1500 rpm for 5 minutes. Buffer A was added up to a final of 3 original packed cell volumes and the suspension was incubated on ice for 10 minutes. Cells were transferred to a Wheaton A Dounce homogenizer and lysed with 10 strokes. Nuclei were pelleted by centrifuging at maximum speed for 5 min in a microcentrifuge. Nuclei were resuspended in Buffer B (20 mM HEPES, pH 7.9, 100 mM KCl, 0.5 mM DTT and 0.2 mM PMSF) and disrupted by sonication. After preclearing with 20 μl protein A-agarose beads, the supernatant was incubated with either myc- or hemagglutinin-specific monoclonal antibody (5 μg/sample) and 20 μl protein A-agarose beads overnight at 4° C., the sample was washed three times with 1 ml Buffer B and the purified immune complex was incubated overnight at 4° C. with myc or HA peptide to release Ndy1/KDM2B from the beads. Demethylation reactions were carried out in 10 mM HEPES pH 7.9, 50 mM NaCl, 1 mM α-ketoglutarate, 2 mM ascorbate, 30-70 μM Fe(NH4)2(SO4)2, 0.25 mg/ml BSA and contained 6 μg of bulk histone per 90 μl reaction. Reactions were incubated at 37° C. for 1-3 hours and analyzed by 18% SDS-PAGE and Western-blotting with histone specific antibodies.
# Fluorescent assays were carried out as previously described (Couture, J. F., et al. (2007) Nat Struct Mol Biol 14, 689-95) under the reaction conditions above. One unit of enzyme activity is determined as amount of Ndy1 that produces 1 μmol of formaldehyde per min, incubated with 340 μM peptide substrate at 37° C. under the above conditions. The sequences of the H3K4(me3) and H3K36(me2) peptides used in the biochemical studies were: ART-K(me3)-QTARKST (SEQ ID NO: 79) and ATGGV-K(me2)-KPHRY (SEQ ID NO: 80) respectively and were synthesized at Tufts University Core facility.
# (§1) Using a fluorescence coupled demethylation assay, a bacterially expressed mouse Ndy1 fragment containing the JmjC, CXXC and PHD domains (aa 171-707) was here shown to demethylate both H3K36me2 and H3K4me3 peptides, with high and low efficiencies respectively (FIG. 20 panel B and FIG. 22). Cloning and bacterial expression of Ndy1 fragments was accomplished using fragments 1-701 and 171-701 of mouse Ndy1, which were amplified using specific primers and were cloned directly into pET102/DTOPO vector (Invitrogen) using of the TOPO-cloning methodology. The C-terminally His-tagged fusion proteins were purified from BL21(DE3) cells using Ni2+agarose beads (QIAGEN) and according to the manufacturer instructions. Flow cytometry analysis of histone modifications was determined in HEK293 cells transfected with either pIRES-GFP-empty vector (Stratagene) or the same vector containing the wild type or the H283Y JmjC domain point mutant of Ndy1. After 48 hours, cells were harvested and fixed in 1% paraformaldehyde for 10 min. Cells were washed twice with PBS, and were permeabilized with 0.5% saponin in PBS for 20 min and were blocked with 3% bovine serum albumin (BSA). […] (Alexa Fluor 635, Invitrogen, #A31577) followed by fluorescence-activated cell sorting using a CyAn high performance flow cytometer (Dako Cytomation).
# bulk histone = test: In vitro histone demethylation assay with immunoprecipitated native Ndy1 (Western blot); format: biochemical; conditions: mouse and human Ndy1 immunoprecipitated from MEFs and IMR90 cells
# HEK293 cells = test: Flow cytometry of global histone modifications in HEK293 cells transfected with Ndy1; format: cell-based, human; conditions: HEK293 cells transiently transfected with Ndy1
# Excerpt: as §1, with “Ndy1.” for “Ndy1. After 48 hours, cells were harvested and fixed in 1% paraformaldehyde for 10 min. Cells were washed twice with PBS, and were permeabilized with 0.5% saponin in PBS for 20 min and were blocked with 3% bovine serum albumin (BSA).”
# To confirm the activity and specificity of the Ndy1 histone demethylase in vivo, flow cytometry was used to quantitatively assess the global levels of histone H3K36me2 and H3K4me3 in HEK293 cells transiently transfected with Ndy1.
molecule,measurement,setting,value
"Ndy1: JmjC domain-containing histone H3 demethylase, overexpressed from retroviral constructs or immunoprecipitated (protein, UniProt Q6P1G2 1-1309, looked up) Lysine-specific demethylase 2B: MEAEKDSGRRLRAIDRQRYDENEDLSDVEEIVSVRGFSLEEKLRSQLYQGDFVHAMEGKDFNYEYVQREALRVPLVFRDKDGLGIKMPDPDFTVRDVKLLVGSRRLVDVMDVNTQKGTEMSMSQFVRYYETPEAQRDKLYNVISLEFSHTKLEHLVKRPTVVDLVDWVDNMWPQHLKEKQTEATNALAEMKYPKVKKYCLMSVKGCFTDFHIDFGGTSVWYHVFRGGKIFWLIPPTLHNLALYEEWVLSGKQSDIFLGDRVERCQRIELKQGYTFFIPSGWIHAVYTPVDSLVFGGNILHSFNVPMQLRIYEIEDRTRVQPKFRYPFYYEMCWYVLERYVYCVTQRSYLTQEYQRELMLIDAPRKTSVDGFSSDSWLDMEEESCEQQPQEEEEEEEDKEEEGDGADKTPKPPTDDPTSPTSTPPEDQDSTGKKPKAPAIRFLKRTLSNESEESVKSTSMPTDDPKTPTGSPATEVSTKWTHLTEFELKGLKALVEKLESLPENKKCVPEGIEDPQALLEGVKNVLKEHVDDDPTLAITGVPVVSWPKKTAKNRVVGRPKGKLGPASAVKLAANRTTAGARRRRTRCRKCEACLRTECGECHFCKDMKKFGGPGRMKQSCIMRQCIAPVLPHTAVCLVCGEAGKEDTVEEEEGKFNLMLMECSICNEIIHPGCLKIKESEGVVNDELPNCWECPKCNHAGKTGKQKRGPGFKYASNLPGSLLKEQKMNRDNKEGQEPAKRRSECEEAPRRRSDEHPKKVPADGILRRKSDDVHLRRKRKYEKPQELSGRKRASSLQTSPGSSSHLSPRPPLGSSLSPWWRSSLTYFQQQLKPGKEDKLFRKKRRSWKNAEDRLSLANKPLRRFKQEPEDDLPEAPPKTRESDQSRSSSPTAGPSTEGAEGPEEKKKVKMRRKRRLVNKELSKELSKELNHEIQKTESTLAHESQQPIKSEPESENDEPKRPLSHCERPHRFSKGLNGTPRELRHSLGPGLRSPPRVMSRPPPSASPPKCIQMERHVIRPPPISPPPDSLPLDDGAAHVMHREVWMAVFSYLSHRDLCVCMRVCRTWNRWCCDKRLWTRIDLNRCKSITPLMLSGIIRRQPVSLDLSWTNISKKQLSWLINRLPGLRDLVLSGCSWIAVSALCSSSCPLLRTLDVQWVEGLKDAQMRDLLSPPTDNRPGQMDNRSKLRNIVELRLAGLDITDVSLRLIIRHMPLLSKLQLSYCNHINDQSINLLTAVGTTTRDSLTEVNLSDCNKVTDLCLSFFKRCGNICHIDLRYCKQVTKEGCEQFIAEMSVSVQFGQVEEKLLQKLS",attenuation of induction of p16Ink4a,"MEFs; passage 5, relative to empty vector transduced MEFs",about 55%
same,reduction of induction of p19Arf,MEFs; passage 10,about 43%
same,attenuation of induction of p16Ink4a,"MEFs; passage 10, relative to empty vector transduced MEFs",~62%
same,reduction of induction of p19Arf,MEFs; passage 15,~34%
same,attenuation of induction of p16Ink4a,"MEFs; passage 15, relative to empty vector transduced MEFs",~90%
same,specific activity towards the H3K36me2 versus the H3K4me3 peptide,H3K36me2 peptide,three times higher
same,H3K4me3 demethylase activity,bulk histone,weak
same,H3K36me2 demethylase activity,bulk histone,strong
same,histone H3K4me3 demethylase activity in vivo,HEK293 cells,weak
same,histone H3K36me2 demethylase activity in vivo,HEK293 cells,strong
